Molecular target: Thermococcus celer 30S small ribosomal subunit (T. celer (endogenous in T. celer cells)) (UniProt P29161)
Experiment: cryo-EM structure; post-splitting complex from 1 nmol T. celer 70S split by ABCE1^IIEA (8 uM), aPelota and aRF1 (5 uM each), 0.5 mM AMP-PNP, 50 mM HEPES-KOH pH 7.5, 30 mM KCl, 10 mM MgCl2, 2 mM DTT, 65 °C 15 min; cross-linked with 1% formaldehyde; 30S fractions of a 10-30% sucrose gradient

percent of 30S particles associated with ABCE1 (3D classification): 97%
Substance: ABCE1^IIEA (E238A/E485A), hydrolysis-deficient ABCE1 from Saccharolobus solfataricus (from UniProt Q980K5 1-594) (enzyme)

Reference: publication PMC7196836, “Molecular analysis of the ribosome recycling factor ABCE1 bound to the 30S post‐splitting complex” (The EMBO Journal, 2020)
